From patent US20150011431A1
One block for each substance: values may come before it.

Target: CXCR1 (UniProt P25024)
Assay: cell-based or functional assay

Sequence of CXCR1 (P25024 whole entry): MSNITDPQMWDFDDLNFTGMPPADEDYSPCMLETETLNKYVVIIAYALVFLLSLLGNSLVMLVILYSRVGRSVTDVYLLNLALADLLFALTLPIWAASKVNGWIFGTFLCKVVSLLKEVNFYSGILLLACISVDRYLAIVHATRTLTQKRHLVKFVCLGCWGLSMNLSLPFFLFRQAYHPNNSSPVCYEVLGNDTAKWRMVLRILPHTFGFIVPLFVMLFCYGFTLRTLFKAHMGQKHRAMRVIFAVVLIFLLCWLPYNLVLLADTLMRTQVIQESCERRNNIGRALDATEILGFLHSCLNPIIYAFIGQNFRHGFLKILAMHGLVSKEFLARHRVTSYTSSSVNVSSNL
Sequence of IL-8 (soluble cytokine) (P10145 28-99 limits assumed): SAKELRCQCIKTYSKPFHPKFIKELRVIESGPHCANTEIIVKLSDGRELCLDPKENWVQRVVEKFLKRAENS

average RLU at 0.01 nM (beta-arrestin recruitment reporter, CXCR1-U2OS cells): 440 RLU
average RLU at 0.08 nM (beta-arrestin recruitment reporter, CXCR1-U2OS cells): 504 RLU
average RLU at 0.23 nM (beta-arrestin recruitment reporter, CXCR1-U2OS cells): 940 RLU
average RLU at 0.69 nM (beta-arrestin recruitment reporter, CXCR1-U2OS cells): 1940 RLU
average RLU at 2.06 nM (beta-arrestin recruitment reporter, CXCR1-U2OS cells): 4110 RLU
average RLU at 6.17 nM (beta-arrestin recruitment reporter, CXCR1-U2OS cells): 5870 RLU
average RLU at 18.52 nM (beta-arrestin recruitment reporter, CXCR1-U2OS cells): 7300 RLU
average RLU at 31.5 nM (beta-arrestin recruitment reporter, CXCR1-U2OS cells): 55500 RLU
average RLU at 55.56 nM (beta-arrestin recruitment reporter, CXCR1-U2OS cells): 7360 RLU
average RLU at 166.67 nM (beta-arrestin recruitment reporter, CXCR1-U2OS cells): 6770 RLU
average RLU at 500.00 nM (beta-arrestin recruitment reporter, CXCR1-U2OS cells): 5720 RLU
Substance: IL-8 (soluble cytokine) (from UniProt P10145 28-99) (ligand)

average RLU at 0.001 nM IgG (beta-arrestin recruitment reporter, CXCR1-U2OS cells): 7500 RLU
average RLU at 0.004 nM IgG (beta-arrestin recruitment reporter, CXCR1-U2OS cells): 7390 RLU
average RLU at 0.013 nM IgG (beta-arrestin recruitment reporter, CXCR1-U2OS cells): 7050 RLU
average RLU at 0.040 nM IgG (beta-arrestin recruitment reporter, CXCR1-U2OS cells): 6970 RLU
average RLU at 0.120 nM IgG (beta-arrestin recruitment reporter, CXCR1-U2OS cells): 7330 RLU
average RLU at 0.359 nM IgG (beta-arrestin recruitment reporter, CXCR1-U2OS cells): 6690 RLU
average RLU at 1.076 nM IgG (beta-arrestin recruitment reporter, CXCR1-U2OS cells): 7180 RLU
average RLU at 3.228 nM IgG (beta-arrestin recruitment reporter, CXCR1-U2OS cells): 7030 RLU
average RLU at 9.685 nM IgG (beta-arrestin recruitment reporter, CXCR1-U2OS cells): 7170 RLU
average RLU at 29.056 nM IgG (beta-arrestin recruitment reporter, CXCR1-U2OS cells): 7100 RLU
average RLU at 87.167 nM IgG (beta-arrestin recruitment reporter, CXCR1-U2OS cells): 7140 RLU
average RLU at 261.500 nM IgG (beta-arrestin recruitment reporter, CXCR1-U2OS cells): 7540 RLU
Substance: IgG VH4-4 CDR3 BsaI (lacking the IL-8 insert) (antibody)
